Source: PMC9580340 (Science (New York, N.y.), 2022)

B1: A19-61.1 IgG1 (antibody, V domains shown)
VH: QVQLVESGGGVVQPGRSLRLSCAASGFTFSSYAFHWVRQAPGKGLEWVAVISYDGSNQYYADSVKGRFTISRDNSKNTLYLQMNSLRADDTAVYYCARDLAIAVAGTWHYYNGMDVWGQGTTVTVSS
VL: DIQMTQSPSSVSASVGDRVIITCRASQGISSWLAWYQQKPGKAPKVLIYDASSLQSGVPSRFSGSGYGTDFTLTISSLQPEDSATYYCQQAKSFPITFGQGTRLEIK
B2: A19-46.1 IgG1 (antibody, V domains shown)
VH: QVQLVESGGGVVQPGRSLRLSCAASGFTLSSYGMHWVRQAPGKGLEWVAVISYDGSNKYYVDSVKGRFTISRDNSKNTLYLQMNSLRAEDTAVYYCARGWAYWELLPDYYYGMDVWGQGTTVTVSS
VL: QTVVTQEPSFSVSPGGTVTLTCGLSSGSVSTAYFPSWYQQTPGQAPRTLIYGTNTRSSGVPDRFSGSILGNKAALTITGAQADDESDYYCVLYMGRGIVVFGGGTKLTVL
B3: Fab A19-46.1 (Fab, V domains shown)
VH: B2 VH
VL: B2 VL
notes: 17-residue-long CDR H3

Assays:
[1] = molecular target: T1, SARS-CoV-2 D614G spike, full length, on transfected 293T cells (SARS-CoV-2, QHD43416.1 (Wuhan-Hu-1) …, UniProt A0A6H1PJZ3, D614G); assay: flow cytometry on cells; conditions: one partner purified
T1 construct: also called ancestral D614G spike

[2] = molecular target: SARS-CoV-2 B.1.1.529 (Omicron; BA.1) spike, full length, on transfected 293T cells (SARS-CoV-2 B.1.1.529 (Omicron BA.1), A67V | H69del | V70del | T95I | G142D | V143del | Y144del | Y145del | N211del | …); assay: flow cytometry on cells; conditions: one partner purified
[3] = molecular target: T2, SARS-CoV-2 B.1.1.529 (Omicron) S2P spike, trimeric ectodomain (cryo-EM) (SARS-CoV-2 B.1.1.529 (Omicron BA.1), …, A67V | H69del | V70del | T95I | G142D | V143del | Y144del | Y145del | N211del | …); assay: cryo-EM structure; conditions: both partners purified
T2 construct: also called B.1.1.529 spike; B.1.1.529 S2P spike

Row | Binder | binding result [1] | binding as percent of D614G [2] | stoichiometry N [3]
1 | B1 | binds | – | –
2 | B2 | binds | 47 % of D614G | –
3 | B3 | – | – | 2 Fabs per spike trimer
